Target: T1, purified recombinant ectodomain of human MuSK fused to myc (hMuSKect-myc), wild type (human, UniProt O15146 24-495)
T1 construct: muscle-specific receptor tyrosine kinase (MuSK), human, ectodomain (Ig1, Ig2, Ig3, C6 box, Ig4); It holds the C6 box, since a ΔC6 form was made from it; also called Wt; source: HEK293, transfected with phMUSKect-myc; in lysate for co-IP; not shown: myc, C-terminal, kept
T1 sequence (looked up): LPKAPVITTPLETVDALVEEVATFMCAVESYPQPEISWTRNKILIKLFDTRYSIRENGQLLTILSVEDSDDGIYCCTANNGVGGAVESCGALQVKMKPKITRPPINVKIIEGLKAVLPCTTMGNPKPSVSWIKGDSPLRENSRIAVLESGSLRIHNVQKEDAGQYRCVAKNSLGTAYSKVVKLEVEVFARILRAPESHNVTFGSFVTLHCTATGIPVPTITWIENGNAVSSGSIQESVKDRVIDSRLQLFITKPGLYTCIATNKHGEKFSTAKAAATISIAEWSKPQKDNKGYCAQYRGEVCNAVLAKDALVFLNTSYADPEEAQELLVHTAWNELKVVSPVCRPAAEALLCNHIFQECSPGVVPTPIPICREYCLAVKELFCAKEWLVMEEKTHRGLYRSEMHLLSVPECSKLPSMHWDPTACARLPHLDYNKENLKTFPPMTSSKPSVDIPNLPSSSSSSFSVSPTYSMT
Experiment: ELISA; in vitro plate-binding assay: 0.15 ug hMuSKect-myc coated on a Maxi-Sorp plate, blocked with 1% BSA; 0.12 ug hLRP4N-FLAG overlaid with or without 0.24 ug rat neural agrin, room temperature 2 h; bound hLRP4N-FLAG read with anti-FLAG-HRP, normalised to that without agrin
Conditions: both partners purified

B1: N-terminal ectodomain of human LRP4 fused to FLAG (hLRP4N-FLAG) (domain or fragment, UniProt O75096 21-1725, looked up)
chain: SSPECACGRSHFTCAVSALGECTCIPAQWQCDGDNDCGDHSDEDGCILPTCSPLDFHCDNGKCIRRSWVCDGDNDCEDDSDEQDCPPRECEEDEFPCQNGYCIRSLWHCDGDNDCGDNSDEQCDMRKCSDKEFRCSDGSCIAEHWYCDGDTDCKDGSDEENCPSAVPAPPCNLEEFQCAYGRCILDIYHCDGDDDCGDWSDESDCSSHQPCRSGEFMCDSGLCINAGWRCDGDADCDDQSDERNCTTSMCTAEQFRCHSGRCVRLSWRCDGEDDCADNSDEENCENTGSPQCALDQFLCWNGRCIGQRKLCNGVNDCGDNSDESPQQNCRPRTGEENCNVNNGGCAQKCQMVRGAVQCTCHTGYRLTEDGHTCQDVNECAEEGYCSQGCTNSEGAFQCWCETGYELRPDRRSCKALGPEPVLLFANRIDIRQVLPHRSEYTLLLNNLENAIALDFHHRRELVFWSDVTLDRILRANLNGSNVEEVVSTGLESPGGLAVDWVHDKLYWTDSGTSRIEVANLDGAHRKVLLWQNLEKPRAIALHPMEGTIYWTDWGNTPRIEASSMDGSGRRIIADTHLFWPNGLTIDYAGRRMYWVDAKHHVIERANLDGSHRKAVISQGLPHPFAITVFEDSLYWTDWHTKSINSANKFTGKNQEIIRNKLHFPMDIHTLHPQRQPAGKNRCGDNNGGCTHLCLPSGQNYTCACPTGFRKISSHACAQSLDKFLLFARRMDIRRISFDTEDLSDDVIPLADVRSAVALDWDSRDDHVYWTDVSTDTISRAKWDGTGQEVVVDTSLESPAGLAIDWVTNKLYWTDAGTDRIEVANTDGSMRTVLIWENLDRPRDIVVEPMGGYMYWTDWGASPKIERAGMDASGRQVIISSNLTWPNGLAIDYGSQRLYWADAGMKTIEFAGLDGSKRKVLIGSQLPHPFGLTLYGERIYWTDWQTKSIQSADRLTGLDRETLQENLENLMDIHVFHRRRPPVSTPCAMENGGCSHLCLRSPNPSGFSCTCPTGINLLSDGKTCSPGMNSFLIFARRIDIRMVSLDIPYFADVVVPINITMKNTIAIGVDPQEGKVYWSDSTLHRISRANLDGSQHEDIITTGLQTTDGLAVDAIGRKVYWTDTGTNRIEVGNLDGSMRKVLVWQNLDSPRAIVLYHEMGFMYWTDWGENAKLERSGMDGSDRAVLINNNLGWPNGLTVDKASSQLLWADAHTERIEAADLNGANRHTLVSPVQHPYGLTLLDSYIYWTDWQTRSIHRADKGTGSNVILVRSNLPGLMDMQAVDRAQPLGFNKCGSRNGGCSHLCLPRPSGFSCACPTGIQLKGDGKTCDPSPETYLLFSSRGSIRRISLDTSDHTDVHVPVPELNNVISLDYDSVDGKVYYTDVFLDVIRRADLNGSNMETVIGRGLKTTDGLAVDWVARNLYWTDTGRNTIEASRLDGSCRKVLINNSLDEPRAIAVFPRKGYLFWTDWGHIAKIERANLDGSERKVLINTDLGWPNGLTLDYDTRRIYWVDAHLDRIESADLNGKLRQVLVSHVSHPFALTQQDRWIYWTDWQTKSIQRVDKYSGRNKETVLANVEGLMDIIVVSPQRQTGTNACGVNNGGCTHLCFARASDFVCACPDEPDSRPCSLVPGLVPPAPRATGMSEKSPVLPNTPPTTLYSSTTRTRTSLEEVEGRCSERDARLGLCARSNDAVPAAPGEGLHIS
notes: low-density lipoprotein receptor-related protein 4 (LRP4), human, printed as 'the N-terminal ectodomain of human LRP4'; also called hLRP4-FLAG; source: HEK293, transfected with phLRP4N-FLAG; in lysate for co-IP; not shown: FLAG, C-terminal, kept
Question: For B1, which “fold increase of bound hLRP4N-FLAG with agrin over without agrin” value is on record?
Answer: The value was 36 fold.

Reference: publication PMC4564764, “Collagen Q and anti-MuSK autoantibody competitively suppress agrin/LRP4/MuSK signaling” (Scientific Reports, 2015)
